Values joined by “and” are separate entries in the source; they are usually repeats but may differ in a detail not shown here. Equal entries are not always repeated.

We go through three molecules from article PMC3288383 (Journal of Molecular Biology, 2012).

Test [1] concerns the target T1, Jac1 (wild type), His-tagged (S. cerevisiae, UniProt P53193 11-184).
T1 sequence (looked up): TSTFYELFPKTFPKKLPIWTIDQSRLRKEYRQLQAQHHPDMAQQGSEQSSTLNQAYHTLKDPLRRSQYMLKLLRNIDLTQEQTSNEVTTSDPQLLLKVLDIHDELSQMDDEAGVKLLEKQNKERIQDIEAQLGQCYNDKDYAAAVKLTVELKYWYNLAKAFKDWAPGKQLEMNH
Description: pull-down.

The next test deals with T2, Jac1_(L106) (S. cerevisiae, UniProt P53193 11-184, L106 to Ala).
T2 sequence (looked up): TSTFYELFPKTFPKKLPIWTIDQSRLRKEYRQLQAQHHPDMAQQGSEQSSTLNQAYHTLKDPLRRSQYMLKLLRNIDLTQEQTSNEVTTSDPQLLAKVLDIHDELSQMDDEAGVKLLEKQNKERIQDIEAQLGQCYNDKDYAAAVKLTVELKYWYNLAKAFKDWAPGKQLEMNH
Description: pull-down.

For the next test, the target named is T3, Isu1His (S. cerevisiae, UniProt Q03020 28-165).
T3 sequence (looked up): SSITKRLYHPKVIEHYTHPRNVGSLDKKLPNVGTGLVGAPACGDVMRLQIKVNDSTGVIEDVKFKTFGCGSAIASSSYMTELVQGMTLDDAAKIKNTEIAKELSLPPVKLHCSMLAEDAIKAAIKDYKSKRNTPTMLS
Description: cell-based or functional assay.

B1: Isu1-GST (natural protein, S. cerevisiae, UniProt Q03020 28-165, looked up)
chain: SSITKRLYHPKVIEHYTHPRNVGSLDKKLPNVGTGLVGAPACGDVMRLQIKVNDSTGVIEDVKFKTFGCGSAIASSSYMTELVQGMTLDDAAKIKNTEIAKELSLPPVKLHCSMLAEDAIKAAIKDYKSKRNTPTMLS
B1: the Kd in test [1] was 0.69 µM and 0.8 µM; with Jac1_(L106), 0.25 ± 0.07 µM.

B2: Jac1Y (natural protein, S. cerevisiae, UniProt P53193 11-184, looked up)
chain: TSTFYELFPKTFPKKLPIWTIDQSRLRKEYRQLQAQHHPDMAQQGSEQSSTLNQAYHTLKDPLRRSQYMLKLLRNIDLTQEQTSNEVTTSDPQLLLKVLDIHDELSQMDDEAGVKLLEKQNKERIQDIEAQLGQCYNDKDYAAAVKLTVELKAWYNLAKAFKDWAPGKQLEMNH
Turning to B2, the “stimulation of Ssq1 ATPase activity: increase of C0.5 against wt” value with Isu1His was ~15 fold.

B3: Jac1LLL (natural protein, S. cerevisiae, UniProt P53193 11-184, looked up)
chain: TSTFYELFPKTFPKKLPIWTIDQSRLRKEYRQLQAQHHPDMAQQGSEQSSTLNQAYHTLKDPLRRSQYMLKLLRNIDLTQEQTSNEVTTSDPQLAAKVADIHDELSQMDDEAGVKLLEKQNKERIQDIEAQLGQCYNDKDYAAAVKLTVELKYWYNLAKAFKDWAPGKQLEMNH
B3: the “stimulation of Ssq1 ATPase activity: C0.5 compared to the wt control” value with Isu1His is ~24 fold.
